Laboratory results as given in paper PMC4780735.

B1: BaeS sensory kinase tagged with monomeric yellow fluorescent protein (BaeS-mYFP) [E. coli] / itself (parent)
chain: MKFWRPGITGKLFLAIFATCIVLLISMHWAVRISFERGFIDYIKHGNEQRLQLLSDALGEQYAQHGNWRFLRNNDRFVFQILRSFEHDNSEDKPGPGMPPHGWRTQFWVVDQNNKVLVGPRAPIPPDGTRRPILVNGAEVGAVIASPVERLTRNTDINFDKQQRQTSWLIVALATLLAALATFLLARGLLAPVKRLVDGTHKLAAGDFTTRVTPTSEDELGKLAQDFNQLASTLEKNQQMRRDFMADISHELRTPLAVLRGELEAIQDGVRKFTPETVASLQAEVGTLTKLVDDLHQLSMSDEGALAYQKAPVDLIPLLEVAGGAFRERFASRGLKLQFSLPDSITVFGDRDRLMQLFNNLLENSLRYTDSGGSLQISAGQRDKTVRLTFADSAPGVSDDQLQKLFERFYRTEGSRNRASGGSGLGLAICLNIVEAHNGRIIAAHSPFGGVSITVELPLERDLQREV

Variants of: B1
Assay: fluorescence anisotropy (homo-FRET) on cells
Conditions: with itself; ΔbaeS cells; Copper (10 μM) added at about 45 sec; plateau read at about 200-300 sec, before EDTA (100 μM); parent: 0.79; read off a plot

| response [r/r0] | Variant |
| --- | --- |
| 0.95 | MKFWRPGITGKLFLAIFATCIVLLISMHWAVRISFERGFIDYIKAGNEQRLQLLSDALGEQYAQAGNWRFLRNNDRFVFQILRSFEADNSEDKPGPGMPPAGWRTQFWVVDQNNKVLVGPRAPIPPDGTRRPILVNGAEVGAVIASPVERLTRNTDINFDKQQRQTSWLIVALATLLAALATFLLARGLLAPVKRLVDGTHKLAAGDFTTRVTPTSEDELGKLAQDFNQLASTLEKNQQMRRDFMADISHELRTPLAVLRGELEAIQDGVRKFTPETVASLQAEVGTLTKLVDDLHQLSMSDEGALAYQKAPVDLIPLLEVAGGAFRERFASRGLKLQFSLPDSITVFGDRDRLMQLFNNLLENSLRYTDSGGSLQISAGQRDKTVRLTFADSAPGVSDDQLQKLFERFYRTEGSRNRASGGSGLGLAICLNIVEAHNGRIIAAHSPFGGVSITVELPLERDLQREV [chain 1 H45A H65A H87A H101A] |
